{"source": "patent US20130005646A1", "about": "(Novo Nordisk, published 2013)", "binders": {"B1": {"name": "N-alpha-[(S)-4-Carboxy-4-(19-carboxynonadecanoylamino)butyryl]-[Gly1,Glu14,His17,Pro37]-pramlintide (peptide)", "peptide": "X1-GCNTATCATQRLAEFLHHSSNNFGPILPPTNVGSNTP-NH2", "modifications": "disulfide 2-7", "SMILES": "CC[C@H](C)[C@H](NC(=O)[C@@H]1CCCN1C(=O)CNC(=O)[C@H](Cc1ccccc1)NC(=O)[C@H](CC(N)=O)NC(=O)[C@H](CC(N)=O)NC(=O)[C@H](CO)NC(=O)[C@H](CO)NC(=O)[C@H](Cc1c[nH]cn1)NC(=O)[C@H](Cc1c[nH]cn1)NC(=O)[C@H](CC(C)C)NC(=O)[C@H](Cc1ccccc1)NC(=O)[C@H](CCC(=O)O)NC(=O)[C@H](C)NC(=O)[C@H](CC(C)C)NC(=O)[C@H](CCCNC(=N)N)NC(=O)[C@H](CCC(N)=O)NC(=O)[C@@H](NC(=O)[C@H](C)NC(=O)[C@@H]1CSSC[C@H](NC(=O)CNC(=O)CC[C@H](NC(=O)CCCCCCCCCCCCCCCCCCC(=O)O)C(=O)O)C(=O)N[C@@H](CC(N)=O)C(=O)N[C@@H]([C@@H](C)O)C(=O)N[C@@H](C)C(=O)N[C@@H]([C@@H](C)O)C(=O)N1)[C@@H](C)O)C(=O)N[C@@H](CC(C)C)C(=O)N1CCC[C@H]1C(=O)N1CCC[C@H]1C(=O)N[C@H](C(=O)N[C@@H](CC(N)=O)C(=O)N[C@H](C(=O)NCC(=O)N[C@@H](CO)C(=O)N[C@@H](CC(N)=O)C(=O)N[C@H](C(=O)N1CCC[C@H]1C(N)=O)[C@@H](C)O)C(C)C)[C@@H](C)O"}, "B2": {"name": "N-alpha-[(S)-4-Carboxy-4-(19-carboxynonadecanoylamino)butyryl]-[Glu14,Pro37]-pramlintide (peptide)", "peptide": "{C20 diacid-γGlu}-KCNTATCATQRLAEFLVHSSNNFGPILPPTNVGSNTP-NH2", "modifications": "disulfide 2-7", "SMILES": "CC[C@H](C)[C@H](NC(=O)[C@@H]1CCCN1C(=O)CNC(=O)[C@H](Cc1ccccc1)NC(=O)[C@H](CC(N)=O)NC(=O)[C@H](CC(N)=O)NC(=O)[C@H](CO)NC(=O)[C@H](CO)NC(=O)[C@H](Cc1c[nH]cn1)NC(=O)[C@@H](NC(=O)[C@H](CC(C)C)NC(=O)[C@H](Cc1ccccc1)NC(=O)[C@H](CCC(=O)O)NC(=O)[C@H](C)NC(=O)[C@H](CC(C)C)NC(=O)[C@H](CCCNC(=N)N)NC(=O)[C@H](CCC(N)=O)NC(=O)[C@@H](NC(=O)[C@H](C)NC(=O)[C@@H]1CSSC[C@H](NC(=O)[C@H](CCCCN)NC(=O)CC[C@H](NC(=O)CCCCCCCCCCCCCCCCCCC(=O)O)C(=O)O)C(=O)N[C@@H](CC(N)=O)C(=O)N[C@@H]([C@@H](C)O)C(=O)N[C@@H](C)C(=O)N[C@@H]([C@@H](C)O)C(=O)N1)[C@@H](C)O)C(C)C)C(=O)N[C@@H](CC(C)C)C(=O)N1CCC[C@H]1C(=O)N1CCC[C@H]1C(=O)N[C@H](C(=O)N[C@@H](CC(N)=O)C(=O)N[C@H](C(=O)NCC(=O)N[C@@H](CO)C(=O)N[C@@H](CC(N)=O)C(=O)N[C@H](C(=O)N1CCC[C@H]1C(N)=O)[C@@H](C)O)C(C)C)[C@@H](C)O"}, "B3": {"name": "N-alpha-[(S)-4-Carboxy-4-(19-carboxynonadecanoylamino)butyryl]-Gly-[His1,Glu14,His17,Pro37]-pramlintide (peptide)", "peptide": "{C20 diacid-γGlu}-GHCNTATCATQRLAEFLHHSSNNFGPILPPTNVGSNTP-NH2", "modifications": "disulfide 3-8", "SMILES": "CC[C@H](C)[C@H](NC(=O)[C@@H]1CCCN1C(=O)CNC(=O)[C@H](Cc1ccccc1)NC(=O)[C@H](CC(N)=O)NC(=O)[C@H](CC(N)=O)NC(=O)[C@H](CO)NC(=O)[C@H](CO)NC(=O)[C@H](Cc1c[nH]cn1)NC(=O)[C@H](Cc1c[nH]cn1)NC(=O)[C@H](CC(C)C)NC(=O)[C@H](Cc1ccccc1)NC(=O)[C@H](CCC(=O)O)NC(=O)[C@H](C)NC(=O)[C@H](CC(C)C)NC(=O)[C@H](CCCNC(=N)N)NC(=O)[C@H](CCC(N)=O)NC(=O)[C@@H](NC(=O)[C@H](C)NC(=O)[C@@H]1CSSC[C@H](NC(=O)[C@H](Cc2c[nH]cn2)NC(=O)CNC(=O)CC[C@H](NC(=O)CCCCCCCCCCCCCCCCCCC(=O)O)C(=O)O)C(=O)N[C@@H](CC(N)=O)C(=O)N[C@@H]([C@@H](C)O)C(=O)N[C@@H](C)C(=O)N[C@@H]([C@@H](C)O)C(=O)N1)[C@@H](C)O)C(=O)N[C@@H](CC(C)C)C(=O)N1CCC[C@H]1C(=O)N1CCC[C@H]1C(=O)N[C@H](C(=O)N[C@@H](CC(N)=O)C(=O)N[C@H](C(=O)NCC(=O)N[C@@H](CO)C(=O)N[C@@H](CC(N)=O)C(=O)N[C@H](C(=O)N1CCC[C@H]1C(N)=O)[C@@H](C)O)C(C)C)[C@@H](C)O"}, "B4": {"name": "N-alpha-[(S)-4-Carboxy-4-(19-carboxynonadecanoylamino)butyryl]-Ser-[Glu14,His17,His35]-pramlintide (peptide)", "peptide": "{C20 diacid-γGlu}-SKCNTATCATQRLAEFLHHSSNNFGPILPPTNVGSHTY-NH2", "modifications": "disulfide 3-8", "SMILES": "CC[C@H](C)[C@H](NC(=O)[C@@H]1CCCN1C(=O)CNC(=O)[C@H](Cc1ccccc1)NC(=O)[C@H](CC(N)=O)NC(=O)[C@H](CC(N)=O)NC(=O)[C@H](CO)NC(=O)[C@H](CO)NC(=O)[C@H](Cc1c[nH]cn1)NC(=O)[C@H](Cc1c[nH]cn1)NC(=O)[C@H](CC(C)C)NC(=O)[C@H](Cc1ccccc1)NC(=O)[C@H](CCC(=O)O)NC(=O)[C@H](C)NC(=O)[C@H](CC(C)C)NC(=O)[C@H](CCCNC(=N)N)NC(=O)[C@H](CCC(N)=O)NC(=O)[C@@H](NC(=O)[C@H](C)NC(=O)[C@@H]1CSSC[C@H](NC(=O)[C@H](CCCCN)NC(=O)[C@H](CO)NC(=O)CC[C@H](NC(=O)CCCCCCCCCCCCCCCCCCC(=O)O)C(=O)O)C(=O)N[C@@H](CC(N)=O)C(=O)N[C@@H]([C@@H](C)O)C(=O)N[C@@H](C)C(=O)N[C@@H]([C@@H](C)O)C(=O)N1)[C@@H](C)O)C(=O)N[C@@H](CC(C)C)C(=O)N1CCC[C@H]1C(=O)N1CCC[C@H]1C(=O)N[C@H](C(=O)N[C@@H](CC(N)=O)C(=O)N[C@H](C(=O)NCC(=O)N[C@@H](CO)C(=O)N[C@@H](Cc1c[nH]cn1)C(=O)N[C@H](C(=O)N[C@@H](Cc1ccc(O)cc1)C(N)=O)[C@@H](C)O)C(C)C)[C@@H](C)O"}, "B5": {"name": "N-epsilon17-[2-(2-{2-[2-(2-{2-[(S)-4-Carboxy-4-(17-carboxyheptadecanoylamino)butyrylamino]ethoxy}ethoxy)acetylamino]ethoxy}ethoxy)acetyl]-[Glu14,Lys17,Ser21,Glu … (peptide)", "peptide": "KCNTATCATQRLAEFLK([AEEA-AEEA-γGlu-C18 diacid])HSSSNFGPILPPTNVGSETY-NH2", "modifications": "disulfide 2-7; N-terminus assumed", "SMILES": "CC[C@H](C)[C@H](NC(=O)[C@@H]1CCCN1C(=O)CNC(=O)[C@H](Cc1ccccc1)NC(=O)[C@H](CC(N)=O)NC(=O)[C@H](CO)NC(=O)[C@H](CO)NC(=O)[C@H](CO)NC(=O)[C@H](Cc1c[nH]cn1)NC(=O)[C@H](CCCCNC(=O)COCCOCCNC(=O)COCCOCCNC(=O)CC[C@H](NC(=O)CCCCCCCCCCCCCCCCC(=O)O)C(=O)O)NC(=O)[C@H](CC(C)C)NC(=O)[C@H](Cc1ccccc1)NC(=O)[C@H](CCC(=O)O)NC(=O)[C@H](C)NC(=O)[C@H](CC(C)C)NC(=O)[C@H](CCCNC(=N)N)NC(=O)[C@H](CCC(N)=O)NC(=O)[C@@H](NC(=O)[C@H](C)NC(=O)[C@@H]1CSSC[C@H](NC(=O)[C@@H](N)CCCCN)C(=O)N[C@@H](CC(N)=O)C(=O)N[C@@H]([C@@H](C)O)C(=O)N[C@@H](C)C(=O)N[C@@H]([C@@H](C)O)C(=O)N1)[C@@H](C)O)C(=O)N[C@@H](CC(C)C)C(=O)N1CCC[C@H]1C(=O)N1CCC[C@H]1C(=O)N[C@H](C(=O)N[C@@H](CC(N)=O)C(=O)N[C@H](C(=O)NCC(=O)N[C@@H](CO)C(=O)N[C@@H](CCC(=O)O)C(=O)N[C@H](C(=O)N[C@@H](Cc1ccc(O)cc1)C(N)=O)[C@@H](C)O)C(C)C)[C@@H](C)O"}, "B6": {"name": "N-epsilon1-[(S)-4-Carboxy-4-(17-carboxyheptadecanoylamino)butyryl]-[Glu14,His17,His35]-pramlintide (peptide)", "peptide": "K([γGlu-C18 diacid])CNTATCATQRLAEFLHHSSNNFGPILPPTNVGSHTY-NH2", "modifications": "disulfide 2-7; N-terminus assumed", "SMILES": "CC[C@H](C)[C@H](NC(=O)[C@@H]1CCCN1C(=O)CNC(=O)[C@H](Cc1ccccc1)NC(=O)[C@H](CC(N)=O)NC(=O)[C@H](CC(N)=O)NC(=O)[C@H](CO)NC(=O)[C@H](CO)NC(=O)[C@H](Cc1c[nH]cn1)NC(=O)[C@H](Cc1c[nH]cn1)NC(=O)[C@H](CC(C)C)NC(=O)[C@H](Cc1ccccc1)NC(=O)[C@H](CCC(=O)O)NC(=O)[C@H](C)NC(=O)[C@H](CC(C)C)NC(=O)[C@H](CCCNC(=N)N)NC(=O)[C@H](CCC(N)=O)NC(=O)[C@@H](NC(=O)[C@H](C)NC(=O)[C@@H]1CSSC[C@H](NC(=O)[C@@H](N)CCCCNC(=O)CC[C@H](NC(=O)CCCCCCCCCCCCCCCCC(=O)O)C(=O)O)C(=O)N[C@@H](CC(N)=O)C(=O)N[C@@H]([C@@H](C)O)C(=O)N[C@@H](C)C(=O)N[C@@H]([C@@H](C)O)C(=O)N1)[C@@H](C)O)C(=O)N[C@@H](CC(C)C)C(=O)N1CCC[C@H]1C(=O)N1CCC[C@H]1C(=O)N[C@H](C(=O)N[C@@H](CC(N)=O)C(=O)N[C@H](C(=O)NCC(=O)N[C@@H](CO)C(=O)N[C@@H](Cc1c[nH]cn1)C(=O)N[C@H](C(=O)N[C@@H](Cc1ccc(O)cc1)C(N)=O)[C@@H](C)O)C(C)C)[C@@H](C)O"}}, "note": "Starred links: 1 amine or outer side, 2 acyl side, 3 side chain; linkers in the order of their positions; H or OH if unused. Positions of bridges follow the written chain, without caps; N, C: chain ends. Groups on a side chain read outwards from the residue. No end group written: not given here. *: point of attachment. X1 = (S)‑4‑Carboxy‑4‑(19-carboxynonadecanoylamino)butyryl, O=C(O)CCCCCCCCCCCCCCCCCCC(=O)N[C@@H](CCC(=O)*)C(=O)O; C20 diacid = O=C(O)CCCCCCCCCCCCCCCCCCC(=O)*; C18 diacid = O=C(O)CCCCCCCCCCCCCCCCC(=O)*; γGlu = O=C(O)[C@H](CCC(=O)[*:2])N[*:1]; AEEA = NCCOCCOCC(=O)O"}
{"target": "T1, human calcitonin (a) receptor (human, UniProt P30988 25-474)", "T1 sequence (looked up)": "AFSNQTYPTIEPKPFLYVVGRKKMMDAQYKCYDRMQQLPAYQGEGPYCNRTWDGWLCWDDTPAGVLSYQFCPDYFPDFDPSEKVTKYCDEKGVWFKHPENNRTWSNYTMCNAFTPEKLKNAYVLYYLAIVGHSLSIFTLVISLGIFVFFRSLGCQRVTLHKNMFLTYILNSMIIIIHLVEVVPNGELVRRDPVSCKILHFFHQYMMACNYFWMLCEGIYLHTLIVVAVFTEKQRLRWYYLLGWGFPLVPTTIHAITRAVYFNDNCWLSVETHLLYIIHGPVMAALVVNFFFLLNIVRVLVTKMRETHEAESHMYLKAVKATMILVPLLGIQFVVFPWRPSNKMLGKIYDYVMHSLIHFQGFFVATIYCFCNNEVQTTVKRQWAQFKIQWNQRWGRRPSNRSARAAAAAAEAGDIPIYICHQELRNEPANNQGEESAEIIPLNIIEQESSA", "test": "cell-based or functional assay", "units": {"CTa receptor human EC50": "nM"}}
{"binder": "B1", "CTa receptor human EC50": 0.052}
{"binder": "B2", "CTa receptor human EC50": 0.0525}
{"binder": "B3", "CTa receptor human EC50": 0.049}
{"binder": "B4", "CTa receptor human EC50": 0.153}
{"binder": "B5", "CTa receptor human EC50": 8.43}
{"binder": "B6", "CTa receptor human EC50": 0.286}
{"target": "T2, human amylin 3(a) receptor (human calcitonin receptor + RAMP-3) (human, UniProt P30988 25-474; O60896 24-148)", "T2 sequence (looked up) 1": "T1 sequence (looked up)", "T2 sequence (looked up) 2": "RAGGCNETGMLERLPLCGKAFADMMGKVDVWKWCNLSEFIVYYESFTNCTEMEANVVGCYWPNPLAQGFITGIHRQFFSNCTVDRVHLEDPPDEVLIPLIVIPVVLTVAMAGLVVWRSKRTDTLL", "test": "cell-based or functional assay", "units": {"Amylin receptor human EC50": "nM"}}
{"binder": "B1", "Amylin receptor human EC50": 0.054}
{"binder": "B2", "Amylin receptor human EC50": 0.055}
{"binder": "B3", "Amylin receptor human EC50": 0.052}
{"binder": "B4", "Amylin receptor human EC50": 0.133}
{"binder": "B5", "Amylin receptor human EC50": 1.75}
{"binder": "B6", "Amylin receptor human EC50": 0.12}
